Measured values: doi:10.1101/2023.02.23.529646 (bioRxiv, 2023)
Residue numbers refer to the chain shown, from its start. Numbers in names are those of the source.

B1: ECSIT_(CTER-W324A) (domain or fragment)
chain: QDPVELAMFGLRHMEPDLSARVTIYQVPLPKDSTGAADPPQPHIVGIQSPDQQAALARHNPARPVFVEGPFSLWLRNKCVYYHILRADLLPPEEREVEETPEEANLYYPMQLDLEYVRSGWDNYEFDINEVEEGPVFAMCMAGAHDQATMAKWIQGLQETNPTLAQIPVVFRLAGSTRELQTSSAGLEEPPLPEDHQEEDDNLQRQQQGQS
B2: ECSIT_(CTER-Y328A) (domain or fragment)
chain: B1 chain with A104W, Y108A
B3: ECSIT_(CTER-Y327F) (domain or fragment)
chain: B1 chain with A104W, Y107F
B4: VLCADWT (res. 72-655) (enzyme)
chain: SFAVGMFKGQLTTDQVFPYPSVLNEEQTQFLKELVEPVSRFFEEVNDPAKNDALEMVEETTWQGLKELGAFGLQVPSELGGVGLCNTQYARLVEIVGMHDLGVGITLGAHQSIGFKGILLFGTKAQKEKYLPKLASGETVAAFCLTEPSSGSDAASIRTSAVPSPCGKYYTLNGSKLWISNGGLADIFTVFAKTPVTDPATGAVKEKITAFVVERGFGGITHGPPEKKMGIKASNTAEVFFDGVRVPSENVLGEVGSGFKVAMHILNNGRFGMAAALAGTMRGIIAKAVDHATNRTQFGEKIHNFGLIQEKLARMVMLQYVTESMAYMVSANMDQGATDFQIEAAISKIFGSEAAWKVTDECIQIMGGMGFMKEPGVERVLRDLRIFRIFEGTNDILRLFVALQGCMDKGKELSGLGSALKNPFGNAGLLLGEAGKQLRRRAGLGSGLSLSGLVHPELSRSGELAVRALEQFATVVEAKLIKHKKGIVNEQFLLQRLADGAIDLYAMVVVLSRASRSLSEGHPTAQHEKMLCDTWCIEAAARIREGMAALQSDPWQQELYRNFKSISKALVERGGVVTSNPLGF
B5: VLCAD_(ACAD9) (enzyme)
chain: B4 chain with M366L, M369L, F371Y, M372T
B6: ACAD9WT (res. 38-621) (enzyme)
chain: AFAKELFLGKIKKKEVFPFPEVSQDELNEINQFLGPVEKFFTEEVDSRKIDQEGKIPDETLEKLKSLGLFGLQVPEEYGGLGFSNTMYSRLGEIISMDGSITVTLAAHQAIGLKGIILAGTEEQKAKYLPKLASGEHIAAFCLTEPASGSDAASIRSRATLSEDKKHYILNGSKVWITNGGLANIFTVFAKTEVVDSDGSVKDKITAFIVERDFGGVTNGKPEDKLGIRGSNTCEVHFENTKIPVENILGEVGDGFKVAMNILNSGRFSMGSVVAGLLKRLIEMTAEYACTRKQFNKRLSEFGLIQEKFALMAQKAYVMESMTYLTAGMLDQPGFPDCSIEAAMVKVFSSEAAWQCVSEALQILGGLGYTRDYPYERILRDTRILLIFEGTNEILRMYIALTGLQHAGRILTTRIHELKQAKVSTVMDTVGRRLRDSLGRTVDLGLTGNHGVVHPSLADSANKFEENTYCFGRTVETLLLRFGKTIMEEQLVLKRVANILINLYGMTAVLSRASRSIRIGLRNHDHEVLLANTFCVEAYLQNLFSLSQLDKYAPENLDEQIKKVSQQILEKRAYICAHPLDRTC
B7: ACAD9_(A184S) (enzyme)
chain: B6 chain with A147S
B8: ACAD9_(VLCAD) (enzyme)
chain: B6 chain with L364M, L367M, Y369F, T370M
B9: ACAD9_(A184S/SR194TS) (enzyme)
chain: B6 chain with A147S, S157T, R158S
B10: ACAD9_(S191A) (enzyme)
chain: B6 chain with S154A

Assays:
ACAD9WT (res. 38-621) = target: B6; assay: mass photometry
mass photometry = target: the molecule itself; assay: mass photometry
dynamic light scattering = target: the molecule itself; assay: dynamic light scattering

Row | Binder | binding result (ACAD9WT (res. 38-621)) | stoichiometry N (mass photometry) | other results
1 | B1 | binds | – | –
2 | B2 | binds | – | –
3 | B3 | binds | – | –
4 | B4 | – | 2 | –
5 | B5 | – | 2 | –
6 | B6 | – | – | stoichiometry N (dynamic light scattering): 2
7 | B7 | – | – | binding result (dynamic light scattering): binds
8 | B8 | – | 2 | –
9 | B9 | – | 2 | –
10 | B10 | – | 2 | –
